Source: the supplement of paper PMC10567573

B1: ZNF8 (parent)
chain: SLGRHKRTHTGEKPYTCSVCGKSF

Variants of: B1
Assay: protein stability index of a GFP-peptide fusion (GPS, HEK-293T) (PSI 1-6); higher = more stable
Details: c terminus: a fixed tail appended
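Further: lentivirally expressed fusions sorted by FACS into six bins by GFP to DsRed ratio, PSI derived from sequencing read proportions per bin multiplied by bin number.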

Protein stability index: each site, then its substitutions
K6: L 2.04; M 2.38; N 2.48; P 2.18; Q 2.95; R 2.77; S 2.61; T 2.97; V 2.35; W 1.94; Y 3.23
R7: A 2.42; C 4.55; D 3.02; E 4.08; F 2.83; G 4.28; H 3.65; I 3.39; K 3; L 2.66; M 2.44; N 3.38; P 2.98; Q 2.98; S 3.34; T 2.32; V 3.37; W 2.8; Y 2.96
T8: A 3.09; C 2.45; D 3.45; E 2.97; F 2.6; G 2.68; H 3.05; I 1.91; K 3.17; L 2.61; M 1.9; N 2.44; P 2.64; Q 3.17; R 2.83; S 3.02; V 2.68; W 2.2; Y 2.65
H9: A 2.82; C 2.59; D 2.79; E 3.06; F 2.09; G 2.16; I 2.84; K 3.13; L 2.18; M 2.59; N 2.67; P 2.96; Q 3.98; R 2.94; S 2.66; T 2.78; V 2.47; W 2.83; Y 3.15
T10: A 2.84; C 2.08; D 3.47; E 2.86; F 1.88; G 3.3; H 2.98; I 2.77; K 2.84; L 2.19; M 2.74; N 3.44; P 2.56; Q 3.12; R 2.32; S 3.28; V 2.09; W 2.33; Y 2.18
G11: A 2.17; C 2.77; D 3.24; E 2.51; F 2.4; H 3.29; I 2.07; K 2.9; L 2.42; M 2.41; N 2.3; P 2.73; Q 2.53; R 2.53; S 2.79; T 3.09; V 1.98; W 3.56; Y 2.94
E12: A 2.7; C 2.24; D 2.64; F 1.74; G 2.79; H 2.52; I 2.53; K 2.79; L 2.37; M 2.41; N 3.1; P 3.28; Q 2.77; R 3.19; S 2.64; T 2.24; V 2.11; W 2.2; Y 3.15
K13: A 3.72; C 2.88; D 2.34; E 2.39; F 2.2; G 2.61; H 2.96; I 2.65; L 1.99; M 2.4; N 2.48; P 2.71; Q 2.71; R 2.39; S 2.94; T 2.92; W 3.06; Y 2.31
P14: A 2.23; C 2.73; D 3.11; E 2.8; F 3.14; G 2.44; H 2.89; I 3.47; K 2.83; L 3.73; M 2.72; N 3.21; Q 3; R 2.63; S 3.3; T 3.77; V 3.18; W 3.82; Y 3
Y15: A 2.58; C 3.79; D 2.46; E 2.89; F 2.36
